This is an account of results in PMC10269571.

For the experiment, the target named is 3M2e-ferritin nanoparticle (three copies of M2e of H1N1 influenza virus fused to the N terminus of H. pylori ferritin) (influenza A virus H1N1 | Helicobacter pylori). In words: native gel or EMSA.

By stoichiometry N is commonly meant the number of molecules, sites or subunits per partner or assembly. The substance “3M2e-ferritin nanoparticle (three copies of M2e of H1N1 influenza virus fused to the N terminus of H. pylori ferritin)” returned a stoichiometry N of 24.
